Assays:
Conditions in all cases: tags: PeproTech
IL-21 (interleukin-21) [1] = target: T1, IL-21 (interleukin-21) (Homo sapiens, UniProt Q9HBE4 SEQ:25-162); test: cell_activity; 10 nM aptamer
Experimental: (§1) After overnight culture, the same medium was used to seed 2×10⁴ cells per well for testing. Human IL-21 alone or a mixed solution of human IL-21 and aptamer was added thereto and the cells were cultured for 16 hr. The final concentration of human IL-21 was adjusted to 0.05 nM. After 16 hr, the culture supernatant was collected and IFN-γ contained in the supernatant was quantified by sandwich ELISA method. An ELISA Kit manufactured by R&D Systems or Diaclone was used for quantification. After quantification, the inhibitory rate was calculated using the following formula.
Whether these aptamers bind to human IL-21 and inhibit the function thereof was evaluated by a method similar to that in Example 1. Aptamers were obtained by transcription using double-stranded DNA as a template. The evaluation of inhibition in the cell assay system was performed at a nucleic acid final concentration of 10 nM. […] In the Table, “n.d.” indicates unmeasured.

IL-21 (interleukin-21) [2] = target: T1, IL-21 (interleukin-21); test: cell_activity; 1 nM aptamer; 100.0 at 0.2 nM
Experimental: as §1
Whether these aptamers bind to human IL-21 and inhibit the function thereof was evaluated by preparing the aptamers by chemical synthesis and using a method similar to that in Example 1. The evaluation of inhibition in the cell assay system was performed at nucleic acid final concentrations of 1 nM and 0.2 nM. […] In the Table, “n.d.” indicates unmeasured.

IL-21 (interleukin-21) [3] = target: T1, IL-21 (interleukin-21); test: cell_activity; 10 nM aptamer, scored −
Experimental: as §1
Whether these aptamers bind to human IL-21 and inhibit the function thereof was evaluated by a method similar to that in Example 1. Aptamers were obtained by transcription using double-stranded DNA as a template. […] In addition, “n.d.” indicates unmeasured.

IL-21 (interleukin-21) [4] = target: T1, IL-21 (interleukin-21); test: SPR; negative control, no binding
IL-21 (interleukin-21) [5] = target: T1, IL-21 (interleukin-21); test: cell_activity; 1 nM aptamer; 100.0% at 0.1 nM
Experimental: as §1
Whether these aptamers bind to human IL-21 and inhibit the function thereof was evaluated by preparing the aptamers by chemical synthesis and using a method similar to that in Example 1. The evaluation of inhibition in the cell assay system was performed at nucleic acid final concentrations of 1 nM and 0.1 nM. […] In the Table, “n.d.” indicates unmeasured.

IL-21 (interleukin-21) [6] = target: T1, IL-21 (interleukin-21); test: cell_activity; IFN-gamma secretion from NK92 cells stimulated with human IL-21
Experimental: as §1
Whether these aptamers bind to human IL-21 and inhibit the function thereof was evaluated by preparing the aptamers by chemical synthesis and using a method similar to that in Example 1. […] The evaluation of inhibition in the cell assay system was performed at nucleic acid final concentrations of 1 nM and 0.2 nM. In addition, in a cell assay system, the aptamer concentration (IC₅₀) at which IFN-γ secretion was inhibited by 50% by IL-21 stimulation was determined. In the Table, “n.d.” indicates unmeasured.

T1 sequence (Q9HBE4 25-162): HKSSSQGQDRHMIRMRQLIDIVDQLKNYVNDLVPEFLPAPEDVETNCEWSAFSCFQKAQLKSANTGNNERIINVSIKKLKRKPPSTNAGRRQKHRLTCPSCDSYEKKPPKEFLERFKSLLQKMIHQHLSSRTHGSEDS

Binder: GGACCGUCAACACGCGACUACUCGUGAUUGCCCGUCC (ssRNA, 2'-F all pyrimidines) [SEQ39]
- activity (IL-21 (interleukin-21) [1]): 56.1 % inhibition

Binder: GGACCUUCAACACGCGACUACUCGUGAUUGCACGUCC (ssRNA, 2'-F all pyrimidines) [SEQ43]
- activity (IL-21 (interleukin-21) [1]): 43.7 % inhibition

B1: SEQ22(1) (ssRNA)
RNA: GGACCUUCAACACGCGGCUACUCGUGAUUGCCCGUCC
modifications: 2'-OMe 1-3,9-14,20,21,24-27,30-32,34-37; 2'-F 4-8,15,18,19,22,23,28,29,33; 2'-OH G16,G17; 3'-idT
- activity (IL-21 (interleukin-21) [2]): 100 % inhibition

Binder: GGACCUUCAACACGCGGCUACUCGUGAUUGCCCGUCC (ssRNA, as SEQ22(1) plus 2'-OMe C4,U28,U29; 3'-idT) [SEQ22(2)]
- activity (IL-21 (interleukin-21) [2]): 100 % inhibition

Binder: GGACCUUCAACACGCGGCUACUCGUGAUUGCCCGUCC (ssRNA, as SEQ22(2) plus 5'-PEG 40 kDa; 3'-idT) [SEQ22(15)]
- activity (IL-21 (interleukin-21) [2]): 100 % inhibition

Binder: GGACCUCCAACACGCGACUACUCGUGAUUGCCCGUCC (ssRNA, 2'-F all pyrimidines) [SEQ40]
- activity (IL-21 (interleukin-21) [1]): 42 % inhibition

Binder: GGACCUUCAACACGCGACUACCCGUGAUUGCCCGUCC (ssRNA, 2'-F all pyrimidines) [SEQ42]
- activity (IL-21 (interleukin-21) [1]): 39 % inhibition

Binder: GGACCUUCAACACGCGACGACUCGUGAUUGCCCGUCC (ssRNA, 2'-F all pyrimidines) [SEQ41]
- activity (IL-21 (interleukin-21) [1]): 32.4 % inhibition

Binder: GGACCUUCAACACGCGAUACUCGUGAUUGCCCGUCC (ssRNA, 2'-F pyrimidines) [SEQ14]
- activity (IL-21 (interleukin-21) [3]): 13.3 % inhibition

Binder: GGACCUUCAACACGCGACACUCGUGAUUGCCCGUCC (ssRNA, 2'-F pyrimidines) [SEQ15]
- activity (IL-21 (interleukin-21) [3]): 10.7 % inhibition

Binder: GGACCUUCAACACGCGACUCUCGUGAUUGCCCGUCC (ssRNA, 2'-F pyrimidines) [SEQ16]
- activity (IL-21 (interleukin-21) [3]): 10.7 % inhibition

B2: SEQ49 negative control 51mer (ssRNA)
RNA: GGGAAGCUCCGUCGAGCUUUCCUGCAUAAGCUGUAUUGCAGCCAGCAUUUA
- binding result (IL-21 (interleukin-21) [4]): no binding

Binder: GACCUUCAACCCGCGGCUACUCGGGAUUGCCCGUC (ssRNA, as SEQ38(1) with PS after G15) [SEQ38(14)]
- activity (IL-21 (interleukin-21) [5]): 100 % inhibition

Binder: GACCUUCAACCCGCGGCUACUCGGGAUUGCCCGUC (ssRNA, as SEQ38(1) with PS after G16) [SEQ38(15)]
- activity (IL-21 (interleukin-21) [5]): 100 % inhibition

Binder: GACCUUCAACCCGCGGCUACUCGGGAUUGCCCGUC (ssRNA, as SEQ38 plus 5' 40 kDa PEG) [SEQ38(1)]
- IC50 (IL-21 (interleukin-21) [6]): 0.02 nM

Binder: GACCUUCAACCCGCGGCUACUCGGGAUUGCCCGUC (ssRNA, as SEQ38(1) with PS after G15,G16) [SEQ38(18)]
- activity (IL-21 (interleukin-21) [5]): 100 % inhibition
